Results reported in patent US20220204611A1 (Amgen, published 2022).
Numbering of substitutions follows the chain as printed.

T1: human TREM2 (human, UniProt Q9NZC2 19-174, limits assumed)
T1 sequence: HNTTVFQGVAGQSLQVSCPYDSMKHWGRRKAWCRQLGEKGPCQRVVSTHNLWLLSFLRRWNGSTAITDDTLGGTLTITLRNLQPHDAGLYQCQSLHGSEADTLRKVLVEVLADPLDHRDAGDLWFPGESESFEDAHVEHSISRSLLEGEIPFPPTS

B1: V65 (Fab, V domains shown)
VH: EVQLVQSGAEVKKPGESLKISCKGSGYSFTSYWIAWVRQMPGKGLEWMGIIYPGDSDTRYSPSFQGQVTISADKSISTAYLQWSSLKASDTAMYFCARSRTFYYDSSDYFDYWGQGTLVTVSS
VL: DIQMTQSPSSVSASVGDRVTITCRASQGISSWLAWYQQKPGKAPKLLIYAASSLQNGVPSRFSGSGSGTDFTLTISSLQPEDFATYFCQQADSFPRTFGQGTKLEIK
B2: V36 (Fab, V domains shown)
VH: B1 VH with I34L
VL: B1 VL with L54R, F94Y
B3: V5 (Fab, V domains shown)
VH: B1 VH with I50T, S99Q
VL: B1 VL with F94H
B4: V49 (Fab, V domains shown)
VH: B1 VH with T30N, I50T, Y60L
VL: B1 VL with L54R, F94Y
B5: V48 (Fab, V domains shown)
VH: B1 VH with T30G, T58V, S99M
VL: B1 VL with N56T, F94L
B6: V16 (Fab, V domains shown)
VH: B1 VH with F29M, S56G
VL: B1 VL with S53N
B7: V27 (Fab, V domains shown)
VH: B1 VH with S61A, A97V
VL: B1 VL with N56R
B8: V41 (Fab, V domains shown)
VH: B1 VH with I50T, S99Q
VL: B1 VL
B9: V25 (Fab, V domains shown)
VH: B1 VH with T30G, I50L
VL: B1 VL with Q55A, F94M
B10: V15 (Fab, V domains shown)
VH: B1 VH with T30A, I50T
VL: B1 VL with S53W, F94Y
B11: V40 (Fab, V domains shown)
VH: B1 VH with T30G, T58V, S99Q, F110S
VL: B1 VL with N56L, S93R
B12: V24 (Fab, V domains shown)
VH: B1 VH with T58V
VL: B1 VL with N56K, R96H
B13: V14 (Fab, V domains shown)
VH: B1 VH with T30G, S56Q, S99G
VL: B1 VL with S53R
B14: V2 (Fab, V domains shown)
VH: B1 VH with Y27S, S56G
VL: B1 VL with L54R, S93R
B15: V1 (Fab, V domains shown)
VH: B1 VH with Y32S
VL: B1 VL with Q55T, F94Y
B16: V13 (Fab, V domains shown)
VH: B1 VH with T30G, P62A, S99G
VL: B1 VL with N56G, F94M
B17: V37 (Fab, V domains shown)
VH: B1 VH with F29H, Q65A
VL: B1 VL with N56W, F94Y
B18: V17 (Fab, V domains shown)
VH: B1 VH with T30G
VL: B1 VL with L54R, F94S
B19: V4 (Fab, V domains shown)
VH: B1 VH with T30G, Y60V
VL: B1 VL with S53R, F94Y
B20: V29 (Fab, V domains shown)
VH: B1 VH with T30K, S99Q
VL: B1 VL
B21: V3 (Fab, V domains shown)
VH: B1 VH with T30A, G66D, S99G
VL: B1 VL with L54R, S93R
B22: V26 (Fab, V domains shown)
VH: B1 VH with A35G, I50T, S99Q, F102M, Y112A
VL: B1 VL with N56R, F94Y
B23: V93 (Fab, V domains shown)
VH: B1 VH with S99Q
VL: B1 VL with S31G
B24: V80 (Fab, V domains shown)
VH: B1 VH with S99Q, T101N
VL: B1 VL
B25: V92 (Fab, V domains shown)
VH: B1 VH with S99Q, Y103H
VL: B1 VL
B26: V94 (Fab, V domains shown)
VH: B1 VH with S99Q
VL: B1 VL with S52A
B27: V83 (Fab, V domains shown)
VH: B1 VH with S99Q
VL: B1 VL with D92V
B28: V91 (Fab, V domains shown)
VH: B1 VH with G54D, S99Q
VL: B1 VL
B29: V82 (Fab, V domains shown)
VH: B1 VH with S99Q
VL: B1 VL with A51G
B30: V90 (Fab, V domains shown)
VH: B1 VH with Y32E, S99Q
VL: B1 VL with S31R
B31: V81 (Fab, V domains shown)
VH: B1 VH with S99Q
VL: B1 VL with W32L
B32: V79 (Fab, V domains shown)
VH: B1 VH with R59N, S99Q
VL: B1 VL

Target: T1, human TREM2
Experiment: yeast-displayed Fab FACS, 1st screen 10 nM

In order of rising “binding signal fold over 6E7 parental” value:
1. B16  1.31 fold
2. B20  1.53 fold
3. B15  1.68 fold
4. B8  1.74 fold
5. B21  1.97 fold
6. B1  2.05 fold
7. B5  2.42 fold
8. B14  2.55 fold
9. B12  2.64 fold
10. B3  2.73 fold
11. B2  3.38 fold
12. B17  3.46 fold
13. B22  3.57 fold
14. B6  4.01 fold
15. B9  4.23 fold
16. B11  4.48 fold
17. B13  4.71 fold
18. B10  5.23 fold
19. B18  5.37 fold
20. B7  5.5 fold
21. B19  6 fold
22. B4  6.51 fold

Target: T1, human TREM2
Experiment: yeast-displayed Fab FACS, 2nd screen 100 nM

In order of rising “binding signal fold over 6E7 parental” value:
1. B31  0.23 fold
2. B27  0.29 fold
3. B30  0.36 fold
4. B24  0.5 fold
5. B32  0.52 fold
6. B28  0.61 fold
7. B25  0.65 fold
8. B29  0.79 fold
9. B26  0.87 fold
10. B23  1.05 fold

Target: T1, human TREM2
Experiment: yeast-displayed Fab FACS, 1st screen 110 nM

In order of rising “binding signal fold over 6E7 parental” value:
1. B31  0.17 fold
2. B27  0.2 fold
3. B25  0.22 fold
4. B28  0.25 fold
5. B29  0.3 fold
6. B26  0.31 fold
7. B30  0.33 fold
8. B23  0.35 fold
9. B24  0.59 fold
10. B32  0.7 fold

Target: T1, human TREM2
Experiment: yeast-displayed Fab FACS, 2nd screen 10 nM

In order of rising “binding signal fold over 6E7 parental” value:
1. B16  1.35 fold
2. B20  1.67 fold
3. B8  1.72 fold
4. B15  1.92 fold
5. B21  2.24 fold
6. B5  2.54 fold
7. B1  2.75 fold
8. B3  2.84 fold
9. B12  2.9 fold
10. B14  2.9 fold
11. B2  3.44 fold
12. B22  3.47 fold
13. B17  3.49 fold
14. B6  4.04 fold
15. B11  4.16 fold
16. B13  4.64 fold
17. B9  4.7 fold
18. B10  4.78 fold
19. B18  5.51 fold
20. B19  5.51 fold
21. B7  5.69 fold
22. B4  6.58 fold

Target: T1, human TREM2
Experiment: yeast-displayed Fab FACS, 2nd screen 2 nM

In order of rising “binding signal fold over 6E7 parental” value:
1. B8  0.58 fold
2. B20  0.84 fold
3. B16  1.15 fold
4. B3  1.25 fold
5. B1  1.29 fold
6. B15  1.29 fold
7. B12  1.42 fold
8. B21  1.95 fold
9. B14  2.23 fold
10. B5  2.3 fold
11. B13  2.57 fold
12. B22  2.83 fold
13. B9  3.15 fold
14. B11  3.41 fold
15. B6  3.57 fold
16. B17  3.69 fold
17. B2  4 fold
18. B18  4.22 fold
19. B10  4.72 fold
20. B4  5.02 fold
21. B7  5.67 fold
22. B19  5.88 fold
